B1: Protein daughter of sevenless (Drosophila melanogaster (Fruit fly)), Q9VZZ9 (parent)
chain: MDRTFYEGWLIKSPPTKRIWRARWRRRYFTLKQGEIPEQFCLEYYTDHNCRKLKGVIDLDQCEQVDCGLRLENRKQKFQYMFDIKTPKRTYYLAAETEADMRDWVNCICQVCHLHDTKQSNELPLGAVGADENRTQHTSSSGGLSNSTQNTTTTSLHSSAGTTAPQASVPNAGGSAQLRRPAVIEEQPMPSNAGNNNSDSVYVNTEYSNRETMLCDANFDQQELLSAAQQQPPPSPATALYLNHSALIQAQAAAAAAEQLQQQQQQAARLAVSANGVVRKLPEHLVLTQQTLAEAAAQQHSSVQASPALSTASGPYIPISECFSGSPRFLPGVPLPGADLAIPNNPTTPLNNLDPKFYDTPRSHNNIGLNLTNDQSYSPKITNLSLQQLANNNASKQRSDSDSESVFTDDDEWAHPLPLRENVDRSTRPSDSSIENESFVLTYSQRFSKMPEEGGAIVPPAEKSSKLAGAASLPEAGDQGTLDKLAKVLKNKNNLILDFKENEKIPRDLPQLSDTENTSPAIVARRNAHSAFIEESYDIPRSHQQPYYNVNQLLGERPVTSPHNSNPIAASTPNLMAADLGAVAAISAAANPGLMGEAQAVASSPTSARTLPRHCYTNAAPTKMEGNVFRYDFMEQADCPPVNRKLKPKVAGGLPVVEDKPPEEFPAKPPVGVDQLTNKLGAAQLQQPIGPPSVDRKCKPNAYKLGNSATMSPATRRSSGAPLSMVLPHETDVHSPAAANAFFHETRTLPRQQHRHHPNSPGSMSVQHQRTASAAAAMMSLTAAAAPKQQAAAQTEHKLQYFDLDVTNKPPLLNRSSMSVGNLYSQGGNGASGMRFAGVEAGGARAPVPSSVVYRSVDFVKTEAFKRIREERESSGNK

Variants of: B1
Details: with grap_drome drk

effect of a mutation on the interaction | Variant
decreasing interaction strength | R696K
decreasing interaction strength | R644K
disrupting interaction strength | R644K;R696K

Variants of: B1
Details: with grap_drome drk
Remark: another data set of the same source

effect of a mutation on the interaction | Variant
disrupting interaction strength | R644K;R696K
